Data reported in US10849966B2, “Methods for treating netosis and neutrophil activation” (TRUSTEES OF BOSTON UNIVERSITY, priority 2017, dated 2020).
Where “and” joins values, the source holds several entries; their conditions need not be identical. Equal entries are not always repeated.

What was measured:
[1] = PK study in Panc1 xenograft mice; assay type: in vivo; details: 15 mg/kg i.v. (n=3)
[2] = target: T1, DEspR on intact human cells (Homo sapiens, UniProt B0L3A2); assay: hu6g8 binding to DEspR on intact human cells; details: done in triplicate
T1 construct: endogenous in cells; host or cells: intact human cells / 'DEspR+ human cells'
T1 sequence (B0L3A2 1-85): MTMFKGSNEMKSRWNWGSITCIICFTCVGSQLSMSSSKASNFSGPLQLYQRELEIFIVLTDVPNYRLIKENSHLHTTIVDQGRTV
Source text: (§1) FIGS. 17A-17C depict anti-DEspR-mab (hu6g8 mab). FIG. 17A depicts a diagram of DEspR, murine precursor mabs and humanized IgG and IgG4 mabs. Hu6g8 is notated as 6g8g7-hu-IgG4 raised against epitope 2, spanning the putative binding domain.
Described herein is the development, characterization, and validation of a fully humanized anti-DEspR mAb with a S228P hinge-stabilized IgG4/kappa FC region, designated herein as hu-6g8 or […]. The hu-6g8 was designed for high binding affinity to DEspR+ human cells and inhibition of activated neutrophil survival. hu-6g8 is reactive in all species, having identical epitopes in human, primates and rodents, which facilitates preclinical and clinical studies using the therapeutic lead. […] (FIG. 6). Through recombinant DNA technology, hu-6g8 was designed with optimal biophysical properties via: a) avoidance of T-cell epitopes for low immunogenicity—‘deimmunized’, b) optimization of heavy and light chain interactions for stability of variable domains, and c) exclusion of destabilizing post-translational modification sites [deamidation, oxidation, acid-lability, inappropriate N-glycosylation, isomerization and pyroglutamate formation].
Described herein are the advantages of anti-DEspR mAb targeted AECs. DEspR, the dual endothelin1/signal peptide receptor,^9 is a validated target on human activated neutrophils and NETs. […]

activated neutrophils = assay: dose-response survival assay of activated neutrophils (Trypan blue dye exclusion); assay type: cell-based; details: live cells counted by Trypan blue dye exclusion; listed as 6g8-humab; read-out: IC50, inhibition of activated neutrophil survival
Source text: FIG. 6 depicts a graph comparison of functional activity of anti-DEspR fully humanized 6g8 mAb, 6g8-humab, and prototype murine anti-DEspR 6g8 mAb, 6g8-mumab.
as §1
Described herein are the advantages of anti-DEspR mAb targeted AECs. DEspR, the dual endothelin1/signal peptide receptor,^9 is a validated target on human activated neutrophils and NETs. Hu6g8 binds human activated neutrophils (FIG. 18A) and NETs (FIG. 18B), as confirmed by Western Blot analysis of DEspR protein in human kidney (K), and activated neutrophil samples, act-Ns (FIG. 18C). Humanized anti-DEspR-mab (hu6g8 mab) is an ideal targeting moiety. Hu6g8 is the multi-species Human/NHPrimate/Rat reactive humanized-deimmunized anti-DEspR-mab with a hinge-stabilized IgG4S228P/kappa Fc region (FIG. 17A) to avoid (ADCC-antibody dependent cell-mediated cytotoxicity, CDC-complement dependent cytotoxicity), and to eliminate loss of targeting upon Fab arm exchange typical of native IgG4 isotype. […] Through recombinant DNA technology, the antibody design incorporates: a) avoidance of T-cell epitopes for low immunogenicity; b) optimization of heavy and light chain interactions for stability of variable domains; and, c) exclusion of destabilizing post-translational modification sites [e.g., deamidation, oxidation]. The targeting of DEspR^+ NETs, but sparing of DEspR(−) quiescent neutrophils via the anti-DEspR mAb is also novel. […] The use of human neutrophil-elastase cleavable linker is advantageous as this connector-peptide can be added by recombinant technology and HNE is enriched on NETs and actually a reason for the injurious properties of NETs. HNE is desirable for local therapeutic delivery [Owen C A, Campbell E J. J Leukocyte Biol 1999, 65 (2) 137-150], has specificity for small uncharged amino acids particularly alanine (A) and valine (V) [Meers P. Adv Drug Delivery Rev. 2001. 53 (3) 265-272]. […] The advantages of all three in an AEC is novel and robust as the targeted delivery and release of DNAse 1 on NETs can attain in vivo efficacy of what has been shown in vitro, the induction of macrophage uptake-and-clearance of NETs upon DNAse 1 digest of NETs DNA. In summary, targeting the intravascular NETs sites. The humanized anti-DEspR-mab with a hinge-stabilized IgG4/kappa Fc region to avoid Fab arm exchange in vivo and ensuing loss of targeting was selected. Additionally, this avoids immune effector functions of IgG1 mAbs (ADCC, CDC), which would worsen endothelial injury. […]

[3] = test system: Panc1-cancer stem cell pancreatic carcinomatosis xenograft; assay: CSC-derived pancreatic carcinomatosis xenograft tumor model in nude rats, comorbidities; assay type: in vivo, rat; details: treatment start 3 weeks after Panc1-CSC injection; vs untreated
Source text: FIG. 39 depicts a representative image of control untreated tumor rat (left panel) and ABTM-468 treated rat (right panel). Control rat was euthanized due to distress, treated rat was euthanized to obtain age- and tumor-duration-matched tumors. The xenograft tumor model was developed from Panc1-cancer stem cells injected into the peritoneal space 3 weeks prior to the start of treatment. T, tumors; GB, gall bladder.

EC50 [2]: < 5 nM and 4.2 nM
Substance: hu-6g8: fully humanized anti-DEspR mAb with a S228P hinge-stabilized IgG4/kappa FC region
half-life [1]: 40.8 h | IC50 (activated neutrophils): < 8 nM and 7.7 nM | cancer comorbidities (gut ischemia, ascites, gut dysfunction) [3]: reduced gut ischemia, serous or hemorrhagic ascites, distended gut, and ischemic-hemorrhagic gut (black gut) and gut dysfunction
